Experimental data from patent publication US20190315845A1 (ANNEXON, published 2019).
Where two headings read alike, the source gives them in different places.

How the values were obtained:
human C1q [1] = target: T1, human C1q (human, UniProt P02745 23-245; P02746 28-253; P02747 29-245); test: competition ELISA on plate-bound human C1q against biotinylated mouse M1 antibody (0.02 µg/ml); bound biotin-M1 read as OD450
T1 construct: Purified human C1q protein (plate-coated in ELISA, ligand or analyte in SPR, in human serum in CH50); also called hC1q; complement factor C1q
Source text: (§1) FIG. 4A, FIG. 4B, FIG. 4C, and FIG. 4D depicts competition ELISA assays for human C1q. A dilution series of purified humanized anti-C1q antibodies were competed against a fixed concentration of biotinylated monoclonal antibody M1 for binding to human C1q. Bound biotinylated M1 antibody was detected using streptavidin-peroxidase conjugate and TMB substrate. FIG. 4A depicts the results with the humanized antibodies VH1/Vκ1, VH1/Vκ2, and VH1/Vκ3. FIG. 4B depicts the results with the humanized antibodies VH1/Vκ4, VH2/Vκ1, VH2/Vκ2, VH2/Vκ3, and VH2/Vκ4. FIG. 4C depicts the results with the humanized antibodies VH3/Vκ1, VH3/Vκ2, VH3/Vκ3, and VH3/Vκ4. FIG. 4D depicts the results with the humanized antibodies VH4/Vκ1, VH4/Vκ2, […], and VH4/Vκ4.
(§2) The binding of humanized M1 variants to human C1q was analyzed by competition ELISA. A three-fold dilution series of test antibody (5 μg/ml to 0.002 μg/ml) was premixed with a constant concentration of biotinylated mouse M1 antibody (0.02 μg/ml, final concentration) before incubating for 1 hour at 37° C. with shaking on plates pre-coated with human C1q at 1.0 μg/ml. The binding of mouse M1 antibody was detected with streptavidin-peroxidase conjugate (Sigma-Aldrich cat. no. 55512) and TMB (3,3′,5,5′-tetramethylbenzidine) substrate (Thermo Scientific cat. no. 34029). The reaction was stopped with 1M HCl, absorbance read at 450 nm on a Dynex Technologies MRX TC II plate reader and the binding curves plotted.

human C1q [2] = target: T1, human C1q; test: as above; remark: listed apart in the source
Source text: as §1, §2

human C1q [3] = target: T1, human C1q; test: as above; remark: listed apart in the source
Source text: as §1, §2

human C1q [4] = target: T1, human C1q; test: as above; remark: listed apart in the source
Source text: as §1, §2

human C1q [5] = target: T1, human C1q; test: competition ELISA, plate-coated human C1q; competitor biotinylated mouse M1 (0.02 µg/ml); IC50 normalised to chimeric M1 (reference itself)
Method: as §2
The binding curves were used to calculate IC₅₀ values (concentration of test antibody that inhibits labelled competitor binding by 50%) for each antibody normalized to the IC₅₀ of chimeric M1 and antibody yields from NS0 transfectants were also compared (Table 1).

mouse C1q [6] = target: T2, mouse C1q (mouse, UniProt P98086 23-245; P14106 26-253; Q02105 30-246); test: competition ELISA, plate-coated mouse C1q; competitor biotinylated chimeric M1 (0.03 µg/ml); IC50 normalised to chimeric M1 (reference itself)
T2 construct: Purified mouse C1q protein; also called mC1q
Method: (§3) The binding of humanized M1 variants to mouse C1q was analyzed by competition ELISA on four selected antibodies, VH1/Vκ1, VH3/Vκ1, VH3/Vκ4 and VH4/Vκ3. An irrelevant IgG4 (S241P L248E) antibody was also included as a binding control. A three-fold dilution series of test antibody (100 μg/ml to 0.046 μg/ml) was premixed with a constant concentration of biotinylated chimeric M1 antibody (0.03 μg/ml, final concentration) before incubating for 1 hour at 37° C. with shaking on plates pre-coated with mouse C1q at 5.0 μg/ml. The binding of chimeric M1 antibody was detected with streptavidin-peroxidase conjugate (Sigma-Aldrich cat. no. S5512) and TMB substrate (Thermo Scientific cat. no. 34029). The reaction was stopped with 1M HCl, absorbance read at 450 nm on a Dynex Technologies MRX TC II plate reader and the binding curves plotted.
(§4) The binding curves were used to calculate IC₅₀ values for each antibody normalized to the IC₅₀ of chimeric M1 (Table 2).

mouse C1q [7] = target: T2, mouse C1q; test: competition ELISA on plate-bound mouse C1q against biotinylated chimeric M1 antibody (0.03 µg/ml); bound biotin-chimeric M1 read as OD450
Method: as §3, §4

T1 sequence (P02745 23-245 limits assumed, chain 1 of 3): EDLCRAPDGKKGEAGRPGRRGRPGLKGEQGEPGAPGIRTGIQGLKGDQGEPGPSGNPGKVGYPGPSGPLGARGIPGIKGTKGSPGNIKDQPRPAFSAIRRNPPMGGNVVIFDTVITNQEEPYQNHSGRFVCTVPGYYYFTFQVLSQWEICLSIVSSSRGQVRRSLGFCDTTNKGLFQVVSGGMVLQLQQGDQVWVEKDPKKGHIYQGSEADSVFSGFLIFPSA
T1 sequence (P02746 28-253 limits assumed, chain 2 of 3): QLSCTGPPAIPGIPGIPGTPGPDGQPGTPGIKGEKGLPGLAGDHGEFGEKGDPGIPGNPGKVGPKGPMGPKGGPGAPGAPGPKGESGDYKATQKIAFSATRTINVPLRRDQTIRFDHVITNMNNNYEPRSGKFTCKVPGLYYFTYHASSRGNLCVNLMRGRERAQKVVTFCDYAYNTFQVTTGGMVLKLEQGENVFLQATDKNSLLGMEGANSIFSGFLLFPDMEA
T1 sequence (P02747 29-245 limits assumed, chain 3 of 3): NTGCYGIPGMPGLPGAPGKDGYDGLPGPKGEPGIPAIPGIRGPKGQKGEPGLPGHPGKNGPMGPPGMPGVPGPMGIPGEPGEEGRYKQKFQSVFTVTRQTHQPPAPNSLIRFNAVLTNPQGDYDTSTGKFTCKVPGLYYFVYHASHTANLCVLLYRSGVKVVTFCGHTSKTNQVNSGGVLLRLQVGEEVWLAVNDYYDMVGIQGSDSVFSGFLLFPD
T2 sequence (P98086 23-245 limits assumed, chain 1 of 3): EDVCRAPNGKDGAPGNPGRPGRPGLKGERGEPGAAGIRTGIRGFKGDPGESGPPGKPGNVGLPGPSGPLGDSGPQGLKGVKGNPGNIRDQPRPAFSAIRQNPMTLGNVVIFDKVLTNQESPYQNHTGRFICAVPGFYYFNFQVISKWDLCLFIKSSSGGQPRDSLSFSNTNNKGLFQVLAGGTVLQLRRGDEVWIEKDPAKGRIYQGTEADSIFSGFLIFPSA
T2 sequence (P14106 26-253 limits assumed, chain 2 of 3): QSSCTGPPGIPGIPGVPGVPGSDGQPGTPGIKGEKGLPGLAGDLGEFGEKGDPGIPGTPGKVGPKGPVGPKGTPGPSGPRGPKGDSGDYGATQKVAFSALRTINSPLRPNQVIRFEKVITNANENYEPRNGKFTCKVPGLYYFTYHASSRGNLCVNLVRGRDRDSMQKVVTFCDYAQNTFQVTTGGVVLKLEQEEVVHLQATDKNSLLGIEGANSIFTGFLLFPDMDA
T2 sequence (Q02105 30-246 limits assumed, chain 3 of 3): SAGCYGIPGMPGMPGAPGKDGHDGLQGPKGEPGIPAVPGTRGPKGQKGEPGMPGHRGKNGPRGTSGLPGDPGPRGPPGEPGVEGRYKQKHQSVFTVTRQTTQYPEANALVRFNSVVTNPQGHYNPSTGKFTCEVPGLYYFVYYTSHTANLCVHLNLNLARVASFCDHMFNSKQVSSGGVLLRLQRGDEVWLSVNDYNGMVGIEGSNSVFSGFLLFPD

IC50 (read off the curve) (human C1q [1]): ~0.3 µg/mL | IC50 (read off the curve) (human C1q [2]): ~0.3 µg/mL | IC50 (read off the curve) (human C1q [3]): ~0.3 µg/mL | IC50 (read off the curve) (human C1q [4]): ~0.3 µg/mL | Relative IC50 (human C1q [5]): 1 ratio to chimeric M1 | Relative IC50 (mouse C1q [6]): 1 ratio to chimeric M1 | IC50 (read off the curve) (mouse C1q [7]): ~3 µg/mL
B1: chimeric M1 antibody (antibody, human IgG4)
heavy: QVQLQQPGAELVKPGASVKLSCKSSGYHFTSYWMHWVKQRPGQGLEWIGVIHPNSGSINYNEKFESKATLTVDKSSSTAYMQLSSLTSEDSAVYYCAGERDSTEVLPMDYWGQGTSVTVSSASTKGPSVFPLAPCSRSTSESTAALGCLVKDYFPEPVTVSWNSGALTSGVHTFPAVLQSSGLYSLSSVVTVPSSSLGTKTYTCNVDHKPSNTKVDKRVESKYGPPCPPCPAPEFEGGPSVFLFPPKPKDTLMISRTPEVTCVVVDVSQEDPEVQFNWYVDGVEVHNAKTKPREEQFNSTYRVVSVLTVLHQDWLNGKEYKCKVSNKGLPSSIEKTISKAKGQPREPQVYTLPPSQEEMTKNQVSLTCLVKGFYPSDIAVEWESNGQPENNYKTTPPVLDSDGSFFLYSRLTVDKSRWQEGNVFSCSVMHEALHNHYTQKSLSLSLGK
light: DVQITQSPSYLAASPGETITINCRASKSINKYLAWYQEKPGKTNKLLIYSGSTLQSGIPSRFSGSGSGTDFTLTISSLEPEDFAMYYCQQHNEYPLTFGAGTKLELK
notes: Murine M1 V regions with human IgG4 (S241P L248E) and human kappa constant regions, expressed in NS0; also called 3E2; not shown: human kappa light chain constant region
